From patent publication US20260049138A1 (Chugai, published 2026)

Molecular target: T1, CD3ε homodimer protein (human, UniProt P07766 23-126, limits assumed)
T1 construct: also called CD3 (CD3ε)
Experiment: SPR Biacore T200, CD3ε homodimer on chip;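 further: Light-chain single-residue variant antibodies injected over amine-coupled CD3ε homodimer on a CM4 chip at 25 °C, bound amount divided by that of the GLS3000-containing antibody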

T1 sequence (P07766 23-126 limits assumed): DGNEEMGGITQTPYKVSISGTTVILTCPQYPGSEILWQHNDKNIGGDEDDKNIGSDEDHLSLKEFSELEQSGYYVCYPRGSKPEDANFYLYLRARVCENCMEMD

Row | Binder | ratio of amount bound vs unaltered GLS3000
1 | GLS3000 R24G one-arm antibody (antibody, human IgG1, kappa, L234A L235A, N297A, name in Kabat numbering) heavy: QVQLVESGGGVVQPGRSLRLSCAASGFTFSNAWMHWVRQAPGKGLEWVAQIKAKSNNYATYYAESVKGRFTISRDDSKNSLYLQMNSLKTEDTAVYYCRYVHYGAYYGVDAWGQGTTVTVSSASTKGPSVFPLAPSSKSTSGGTAALGCLVKDYFPEPVTVSWNSGALTSGVHTFPAVLQSSGLYSLSSVVTVPSSSLGTQTYICNVNHKPSNTKVDKKVEPKSCDKTHTCPPCPAPEAAGGPSVFLFPPKPKDTLMISRTPEVTCVVVDVSHEDPEVKFNWYVDGVEVHNAKTKPREEQYASTYRVVSVLTVLHQDWLNGKEYKCKVSNKALPAPIEKTISKAKGQPREPQVYTLPPSRCELTKNQVSLSCAVKGFYPSDIAVEWESNGQPENNYKTTPPVLDSDGSFFLVSKLTVDKSRWQQGNVFSCSVMHEALHNHYTQKSLSLSPDYKDDDDK EPKSSDKTHTCPPCPAPELLGGPSVFLFPPKPKDTLMISRTPEVTCVVVDVSHEDPEVKFNWYVDGVEVHNAKTKPREEQYNSTYRVVSVLTVLHQDWLNGKEYKCKVSNKALPAPIEKTISKAKGQPREPQVCTLPPSRDELTKNQVSLWCLVKGFYPSDIAVEWESNGQPENNYKTTPPVLDSDGSFFLYSKLTVDKSRWQQGNVFSCSVMHEALHNRYTQKSLSLSP light: DIVMTQSPLSLPVTPGEPASISCGSSQSLVHSNRNTYLHWYQQKPGQAPRLLIYKVSNRFSGVPDRFSGSGSGTDFTLKISRVEAEDVGVYYCGQGTQVPYTFGQGTKLEIKRTVAAPSVFIFPPSDEQLKSGTASVVCLLNNFYPREAKVQWKVDNALQSGNSQESVTEQDSKDSTYSLSSTLTLSKADYEKHKVYACEVTHQGLSSPVTKSFNRGEC | 0.89
2 | GLS3000 R24P one-arm antibody (antibody, human IgG1, kappa, L234A L235A, N297A, name in Kabat numbering) heavy: QVQLVESGGGVVQPGRSLRLSCAASGFTFSNAWMHWVRQAPGKGLEWVAQIKAKSNNYATYYAESVKGRFTISRDDSKNSLYLQMNSLKTEDTAVYYCRYVHYGAYYGVDAWGQGTTVTVSSASTKGPSVFPLAPSSKSTSGGTAALGCLVKDYFPEPVTVSWNSGALTSGVHTFPAVLQSSGLYSLSSVVTVPSSSLGTQTYICNVNHKPSNTKVDKKVEPKSCDKTHTCPPCPAPEAAGGPSVFLFPPKPKDTLMISRTPEVTCVVVDVSHEDPEVKFNWYVDGVEVHNAKTKPREEQYASTYRVVSVLTVLHQDWLNGKEYKCKVSNKALPAPIEKTISKAKGQPREPQVYTLPPSRCELTKNQVSLSCAVKGFYPSDIAVEWESNGQPENNYKTTPPVLDSDGSFFLVSKLTVDKSRWQQGNVFSCSVMHEALHNHYTQKSLSLSPDYKDDDDK EPKSSDKTHTCPPCPAPELLGGPSVFLFPPKPKDTLMISRTPEVTCVVVDVSHEDPEVKFNWYVDGVEVHNAKTKPREEQYNSTYRVVSVLTVLHQDWLNGKEYKCKVSNKALPAPIEKTISKAKGQPREPQVCTLPPSRDELTKNQVSLWCLVKGFYPSDIAVEWESNGQPENNYKTTPPVLDSDGSFFLYSKLTVDKSRWQQGNVFSCSVMHEALHNRYTQKSLSLSP light: DIVMTQSPLSLPVTPGEPASISCPSSQSLVHSNRNTYLHWYQQKPGQAPRLLIYKVSNRFSGVPDRFSGSGSGTDFTLKISRVEAEDVGVYYCGQGTQVPYTFGQGTKLEIKRTVAAPSVFIFPPSDEQLKSGTASVVCLLNNFYPREAKVQWKVDNALQSGNSQESVTEQDSKDSTYSLSSTLTLSKADYEKHKVYACEVTHQGLSSPVTKSFNRGEC | 0.7
3 | GLS3000 R24Q one-arm antibody (antibody, human IgG1, kappa, L234A L235A, N297A, name in Kabat numbering) heavy: QVQLVESGGGVVQPGRSLRLSCAASGFTFSNAWMHWVRQAPGKGLEWVAQIKAKSNNYATYYAESVKGRFTISRDDSKNSLYLQMNSLKTEDTAVYYCRYVHYGAYYGVDAWGQGTTVTVSSASTKGPSVFPLAPSSKSTSGGTAALGCLVKDYFPEPVTVSWNSGALTSGVHTFPAVLQSSGLYSLSSVVTVPSSSLGTQTYICNVNHKPSNTKVDKKVEPKSCDKTHTCPPCPAPEAAGGPSVFLFPPKPKDTLMISRTPEVTCVVVDVSHEDPEVKFNWYVDGVEVHNAKTKPREEQYASTYRVVSVLTVLHQDWLNGKEYKCKVSNKALPAPIEKTISKAKGQPREPQVYTLPPSRCELTKNQVSLSCAVKGFYPSDIAVEWESNGQPENNYKTTPPVLDSDGSFFLVSKLTVDKSRWQQGNVFSCSVMHEALHNHYTQKSLSLSPDYKDDDDK EPKSSDKTHTCPPCPAPELLGGPSVFLFPPKPKDTLMISRTPEVTCVVVDVSHEDPEVKFNWYVDGVEVHNAKTKPREEQYNSTYRVVSVLTVLHQDWLNGKEYKCKVSNKALPAPIEKTISKAKGQPREPQVCTLPPSRDELTKNQVSLWCLVKGFYPSDIAVEWESNGQPENNYKTTPPVLDSDGSFFLYSKLTVDKSRWQQGNVFSCSVMHEALHNRYTQKSLSLSP light: DIVMTQSPLSLPVTPGEPASISCQSSQSLVHSNRNTYLHWYQQKPGQAPRLLIYKVSNRFSGVPDRFSGSGSGTDFTLKISRVEAEDVGVYYCGQGTQVPYTFGQGTKLEIKRTVAAPSVFIFPPSDEQLKSGTASVVCLLNNFYPREAKVQWKVDNALQSGNSQESVTEQDSKDSTYSLSSTLTLSKADYEKHKVYACEVTHQGLSSPVTKSFNRGEC | 0.9
4 | GLS3000 R24S one-arm antibody (antibody, human IgG1, kappa, L234A L235A, N297A, name in Kabat numbering) heavy: QVQLVESGGGVVQPGRSLRLSCAASGFTFSNAWMHWVRQAPGKGLEWVAQIKAKSNNYATYYAESVKGRFTISRDDSKNSLYLQMNSLKTEDTAVYYCRYVHYGAYYGVDAWGQGTTVTVSSASTKGPSVFPLAPSSKSTSGGTAALGCLVKDYFPEPVTVSWNSGALTSGVHTFPAVLQSSGLYSLSSVVTVPSSSLGTQTYICNVNHKPSNTKVDKKVEPKSCDKTHTCPPCPAPEAAGGPSVFLFPPKPKDTLMISRTPEVTCVVVDVSHEDPEVKFNWYVDGVEVHNAKTKPREEQYASTYRVVSVLTVLHQDWLNGKEYKCKVSNKALPAPIEKTISKAKGQPREPQVYTLPPSRCELTKNQVSLSCAVKGFYPSDIAVEWESNGQPENNYKTTPPVLDSDGSFFLVSKLTVDKSRWQQGNVFSCSVMHEALHNHYTQKSLSLSPDYKDDDDK EPKSSDKTHTCPPCPAPELLGGPSVFLFPPKPKDTLMISRTPEVTCVVVDVSHEDPEVKFNWYVDGVEVHNAKTKPREEQYNSTYRVVSVLTVLHQDWLNGKEYKCKVSNKALPAPIEKTISKAKGQPREPQVCTLPPSRDELTKNQVSLWCLVKGFYPSDIAVEWESNGQPENNYKTTPPVLDSDGSFFLYSKLTVDKSRWQQGNVFSCSVMHEALHNRYTQKSLSLSP light: DIVMTQSPLSLPVTPGEPASISCSSSQSLVHSNRNTYLHWYQQKPGQAPRLLIYKVSNRFSGVPDRFSGSGSGTDFTLKISRVEAEDVGVYYCGQGTQVPYTFGQGTKLEIKRTVAAPSVFIFPPSDEQLKSGTASVVCLLNNFYPREAKVQWKVDNALQSGNSQESVTEQDSKDSTYSLSSTLTLSKADYEKHKVYACEVTHQGLSSPVTKSFNRGEC | 0.89
5 | GLS3000 R24T one-arm antibody (antibody, human IgG1, kappa, L234A L235A, N297A, name in Kabat numbering) heavy: QVQLVESGGGVVQPGRSLRLSCAASGFTFSNAWMHWVRQAPGKGLEWVAQIKAKSNNYATYYAESVKGRFTISRDDSKNSLYLQMNSLKTEDTAVYYCRYVHYGAYYGVDAWGQGTTVTVSSASTKGPSVFPLAPSSKSTSGGTAALGCLVKDYFPEPVTVSWNSGALTSGVHTFPAVLQSSGLYSLSSVVTVPSSSLGTQTYICNVNHKPSNTKVDKKVEPKSCDKTHTCPPCPAPEAAGGPSVFLFPPKPKDTLMISRTPEVTCVVVDVSHEDPEVKFNWYVDGVEVHNAKTKPREEQYASTYRVVSVLTVLHQDWLNGKEYKCKVSNKALPAPIEKTISKAKGQPREPQVYTLPPSRCELTKNQVSLSCAVKGFYPSDIAVEWESNGQPENNYKTTPPVLDSDGSFFLVSKLTVDKSRWQQGNVFSCSVMHEALHNHYTQKSLSLSPDYKDDDDK EPKSSDKTHTCPPCPAPELLGGPSVFLFPPKPKDTLMISRTPEVTCVVVDVSHEDPEVKFNWYVDGVEVHNAKTKPREEQYNSTYRVVSVLTVLHQDWLNGKEYKCKVSNKALPAPIEKTISKAKGQPREPQVCTLPPSRDELTKNQVSLWCLVKGFYPSDIAVEWESNGQPENNYKTTPPVLDSDGSFFLYSKLTVDKSRWQQGNVFSCSVMHEALHNRYTQKSLSLSP light: DIVMTQSPLSLPVTPGEPASISCTSSQSLVHSNRNTYLHWYQQKPGQAPRLLIYKVSNRFSGVPDRFSGSGSGTDFTLKISRVEAEDVGVYYCGQGTQVPYTFGQGTKLEIKRTVAAPSVFIFPPSDEQLKSGTASVVCLLNNFYPREAKVQWKVDNALQSGNSQESVTEQDSKDSTYSLSSTLTLSKADYEKHKVYACEVTHQGLSSPVTKSFNRGEC | 0.88
6 | GLS3000 R24Y one-arm antibody (antibody, human IgG1, kappa, L234A L235A, N297A, name in Kabat numbering) heavy: QVQLVESGGGVVQPGRSLRLSCAASGFTFSNAWMHWVRQAPGKGLEWVAQIKAKSNNYATYYAESVKGRFTISRDDSKNSLYLQMNSLKTEDTAVYYCRYVHYGAYYGVDAWGQGTTVTVSSASTKGPSVFPLAPSSKSTSGGTAALGCLVKDYFPEPVTVSWNSGALTSGVHTFPAVLQSSGLYSLSSVVTVPSSSLGTQTYICNVNHKPSNTKVDKKVEPKSCDKTHTCPPCPAPEAAGGPSVFLFPPKPKDTLMISRTPEVTCVVVDVSHEDPEVKFNWYVDGVEVHNAKTKPREEQYASTYRVVSVLTVLHQDWLNGKEYKCKVSNKALPAPIEKTISKAKGQPREPQVYTLPPSRCELTKNQVSLSCAVKGFYPSDIAVEWESNGQPENNYKTTPPVLDSDGSFFLVSKLTVDKSRWQQGNVFSCSVMHEALHNHYTQKSLSLSPDYKDDDDK EPKSSDKTHTCPPCPAPELLGGPSVFLFPPKPKDTLMISRTPEVTCVVVDVSHEDPEVKFNWYVDGVEVHNAKTKPREEQYNSTYRVVSVLTVLHQDWLNGKEYKCKVSNKALPAPIEKTISKAKGQPREPQVCTLPPSRDELTKNQVSLWCLVKGFYPSDIAVEWESNGQPENNYKTTPPVLDSDGSFFLYSKLTVDKSRWQQGNVFSCSVMHEALHNRYTQKSLSLSP light: DIVMTQSPLSLPVTPGEPASISCYSSQSLVHSNRNTYLHWYQQKPGQAPRLLIYKVSNRFSGVPDRFSGSGSGTDFTLKISRVEAEDVGVYYCGQGTQVPYTFGQGTKLEIKRTVAAPSVFIFPPSDEQLKSGTASVVCLLNNFYPREAKVQWKVDNALQSGNSQESVTEQDSKDSTYSLSSTLTLSKADYEKHKVYACEVTHQGLSSPVTKSFNRGEC | 0.87
